Results on four molecules are retold here after patent US20250304687A1 (LTZ THERAPEUTICS, published 2025).

The target of this test is T1, human CD79b recombinant protein (human, UniProt P40259 29-159, limits assumed).
T1 construct: Coated on ELISA plates at 1 ug/ml
T1 sequence (looked up): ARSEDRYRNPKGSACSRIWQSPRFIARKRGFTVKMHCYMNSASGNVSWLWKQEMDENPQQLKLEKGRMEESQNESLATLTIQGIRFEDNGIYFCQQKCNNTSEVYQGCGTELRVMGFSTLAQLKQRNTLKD
Put plainly: ELISA, coated human CD79b recombinant protein. For orientation: ELISA stands for enzyme-linked immunosorbent assay.

Protocol: The binding affinities of CD79b/CD3 bispecific antibodies to human CD79b recombinant protein were tested by ELISA. 1 μg/ml (in PBS buffer) of human CD79b recombinant protein was coated on ELISA plates overnight. ELISA plates were washed and blocked with blocking buffer (PBS+1% BSA) and then incubated with serial dilutions of primary CD79b/CD3 bispecific antibodies.

B1: Pola/msnCD3 (bispecific antibody, human IgG1, kappa, N297G)
light: DIQLTQSPSSLSASVGDRVTITCKASQSVDYEGDSFLNWYQQKPGKAPKLLIYAASNLESGVPSRFSGSGSGTDFTLTISSLQPEDFATYYCQQSNEDPLTFGQGTKVEIKRTVAAPSVFIFPPSDEQLKSGTASVVCLLNNFYPREAKVQWKVDNALQSGNSQESVTEQDSKDSTYSLSSTLTLSKADYEKHKVYACEVTHQGLSSPVTKSFNRGEC
heavy: EVQLVESGGGLVQPGGSLRLSCAASGYTFSSYWIEWVRQAPGKGLEWIGEILPGGGDTNYNEIFKGRATFSADTSKNTAYLQMNSLRAEDTAVYYCTRRVPIRLDYWGQGTLVTVSSASTKGPSVFPLAPSSKSTSGGTAALGCLVKDYFPEPVTVSWSSGALTSGVHTFPAVLQSSGLYSLSSVVTVPSSSLGTQTYICNVNHKPSNTKVDKKVEPKSCDKTHTCPPCPAPELLGGPSVFLFPPKPKDTLMISRTPEVTCVVVDVSHEDPEVKFNWYVDGVEVHNAKTKPREEQYGSTYRVVSVLTVLHQDWLNGKEYKCKVSNKALPAPIEKTISKAKGQPREPQVYTLPPSRDELTKNQVSLSCAVKGFYPSDIAVEWESNGQPENNYKTTPPVLDSDGSFFLVSKLTVDKSRWQQGNVFSCSVMHEALHNRFTQKSLSLSPGK
chain: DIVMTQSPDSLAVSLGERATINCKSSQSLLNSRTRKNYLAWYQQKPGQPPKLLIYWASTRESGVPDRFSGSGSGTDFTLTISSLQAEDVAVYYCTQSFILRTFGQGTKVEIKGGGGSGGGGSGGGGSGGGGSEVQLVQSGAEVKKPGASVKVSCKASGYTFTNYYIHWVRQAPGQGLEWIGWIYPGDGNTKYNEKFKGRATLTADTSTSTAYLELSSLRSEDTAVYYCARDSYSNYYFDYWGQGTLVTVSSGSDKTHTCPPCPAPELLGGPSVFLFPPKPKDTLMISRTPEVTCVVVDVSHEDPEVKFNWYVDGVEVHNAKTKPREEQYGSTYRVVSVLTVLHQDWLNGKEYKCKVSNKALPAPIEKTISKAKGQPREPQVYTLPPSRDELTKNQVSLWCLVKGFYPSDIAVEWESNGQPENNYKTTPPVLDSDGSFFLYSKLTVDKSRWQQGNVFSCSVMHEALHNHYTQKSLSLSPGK
notes: also called CD79b/CD3 bispecific antibody Pola/msnCD3
Take B1: the binding result is “binds”.

B2: 23D8/TRX4 (bispecific antibody, human IgG1, kappa, N297G)
light: AYDMTQTPASVEVAVGGTVTIKCQASQSISDNLSWYQQKPGQPPKLLIYDASDLASGVPSRFSGSGSGTEFTLTISDLEPADAATYYCQQDWISSNVDNTFGGGTEVVVKRTVAAPSVFIFPPSDEQLKSGTASVVCLLNNFYPREAKVQWKVDNALQSGNSQESVTEQDSKDSTYSLSSTLTLSKADYEKHKVYACEVTHQGLSSPVTKSFNRGEC
heavy: QSLEESGGGLVTPGGTLTLTCTVSGLSLSSNAINWVRQAPGKGLEWIGMIYSGGRIEYASWAKGRFTISKTSTTVDLKITSPTTEDTATYFCAKGMSPSAHSSDIWGPGTLVTVSASTKGPSVFPLAPSSKSTSGGTAALGCLVKDYFPEPVTVSWSSGALTSGVHTFPAVLQSSGLYSLSSVVTVPSSSLGTQTYICNVNHKPSNTKVDKKVEPKSCDKTHTCPPCPAPELLGGPSVFLFPPKPKDTLMISRTPEVTCVVVDVSHEDPEVKFNWYVDGVEVHNAKTKPREEQYGSTYRVVSVLTVLHQDWLNGKEYKCKVSNKALPAPIEKTISKAKGQPREPQVYTLPPSRDELTKNQVSLSCAVKGFYPSDIAVEWESNGQPENNYKTTPPVLDSDGSFFLVSKLTVDKSRWQQGNVFSCSVMHEALHNRFTQKSLSLSPGK
chain: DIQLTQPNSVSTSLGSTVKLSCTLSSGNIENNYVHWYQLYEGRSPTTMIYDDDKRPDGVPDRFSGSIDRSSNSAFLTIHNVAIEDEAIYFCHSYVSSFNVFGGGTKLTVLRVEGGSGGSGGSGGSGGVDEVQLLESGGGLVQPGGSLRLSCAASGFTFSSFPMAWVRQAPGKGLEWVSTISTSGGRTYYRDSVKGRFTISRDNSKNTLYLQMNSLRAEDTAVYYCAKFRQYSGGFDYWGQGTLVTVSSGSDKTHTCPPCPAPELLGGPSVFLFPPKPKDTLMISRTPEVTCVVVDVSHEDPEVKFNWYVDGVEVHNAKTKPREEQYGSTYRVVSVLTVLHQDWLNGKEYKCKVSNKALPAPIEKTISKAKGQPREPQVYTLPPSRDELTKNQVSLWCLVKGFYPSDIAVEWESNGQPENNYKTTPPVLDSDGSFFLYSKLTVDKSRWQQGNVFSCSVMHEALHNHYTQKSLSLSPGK
notes: Knob-into-hole format: anti-CD79b Fab arm (rabbit 23D8 variable regions on human IgG1/kappa) and anti-CD3 TRX4 (otelixizumab) scFv-Fc
Consider B2, for which the binding result is reported as “binds”.

B3: 23D8/msnCD3 (bispecific antibody, human IgG1, kappa, N297G)
light: B2 light
heavy: B2 heavy
chain: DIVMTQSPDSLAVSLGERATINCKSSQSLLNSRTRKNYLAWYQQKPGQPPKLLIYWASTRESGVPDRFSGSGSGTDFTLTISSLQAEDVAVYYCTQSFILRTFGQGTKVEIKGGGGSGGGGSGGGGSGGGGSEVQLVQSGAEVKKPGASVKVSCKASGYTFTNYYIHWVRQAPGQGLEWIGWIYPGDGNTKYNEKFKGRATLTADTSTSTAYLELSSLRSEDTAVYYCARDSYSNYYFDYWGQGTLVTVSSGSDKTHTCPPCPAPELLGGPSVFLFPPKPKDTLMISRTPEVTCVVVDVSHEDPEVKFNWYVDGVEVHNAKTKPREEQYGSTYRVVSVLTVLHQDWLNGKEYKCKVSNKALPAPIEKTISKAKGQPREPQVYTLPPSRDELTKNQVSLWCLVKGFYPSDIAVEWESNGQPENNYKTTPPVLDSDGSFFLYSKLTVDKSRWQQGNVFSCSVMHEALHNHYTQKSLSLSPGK
notes: also called CD79b/CD3 bispecific antibody 23D8/msnCD3
Regarding B3, the binding result is reported as “binds”.

B4: 23D8/38E4 (bispecific antibody, human IgG1, kappa, N297G)
light: B2 light
heavy: B2 heavy
chain: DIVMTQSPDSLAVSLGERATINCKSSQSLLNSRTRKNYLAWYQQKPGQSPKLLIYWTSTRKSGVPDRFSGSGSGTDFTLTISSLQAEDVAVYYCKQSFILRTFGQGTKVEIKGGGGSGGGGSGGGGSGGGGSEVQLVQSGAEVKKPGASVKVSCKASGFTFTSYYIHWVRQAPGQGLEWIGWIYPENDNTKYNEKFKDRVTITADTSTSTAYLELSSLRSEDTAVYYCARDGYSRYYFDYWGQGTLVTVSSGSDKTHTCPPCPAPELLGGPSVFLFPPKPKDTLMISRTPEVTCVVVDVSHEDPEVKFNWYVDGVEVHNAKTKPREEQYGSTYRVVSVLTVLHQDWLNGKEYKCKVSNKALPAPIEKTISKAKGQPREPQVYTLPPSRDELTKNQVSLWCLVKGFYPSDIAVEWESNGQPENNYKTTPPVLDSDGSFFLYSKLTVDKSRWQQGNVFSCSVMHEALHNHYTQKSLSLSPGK
notes: Knob-into-hole format: anti-CD79b 23D8 Fab arm and anti-CD3 38E4 scFv-Fc; also called CD79b/CD3 bispecific antibody 23D8/38E4
In the case of B4, the binding result is on record as “binds”.
